Results on four sequences are retold here after the supplement of paper PMC5998384.

In series [1] the test system is HeLa Kyoto. Briefly: melting temperature (median over replicates), in situ; higher = more thermally stable.
The test system of series [2] is HeLa Kyoto. Briefly: thermal stability score vs G1/S (z-score of summed log2 fold changes over temperatures); higher = more thermally stable than in G1/S.
Series [3] relates to HeLa Kyoto. Briefly: solubility in G1/S (NP-40 vs SDS abundance) (log2 ratio); higher = more soluble. To be noted: cell cycle stage: G1/S.
In series [4] the test system is HeLa Kyoto. Briefly: solubility change mitosis vs G1/S (difference of NP-40 vs SDS log2 ratios) (log2 ratio difference); higher = more soluble in mitosis.
Setting [5] is: cell cycle stage: early G1 (4.5 h after nocodazole release).
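Wherever melting temperature (median over replicates), in situ is given: HeLa Kyoto cells synchronized by double thymidine or nocodazole block, proteins quantified by TMT10plex mass spectrometry, three independent biological replicates.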
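Wherever solubility change mitosis vs G1/S (difference of NP-40 vs SDS log2 ratios) is given: synchronized HeLa Kyoto cells (double thymidine block for G1/S, nocodazole release for mitosis), protein amounts in NP-40 versus SDS lysates quantified by mass spectrometry, three biological replicates.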
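Wherever solubility in G1/S (NP-40 vs SDS abundance) is given: HeLa Kyoto cells arrested at G1/S by double thymidine block, proteins quantified by TMT10plex mass spectrometry in mild NP-40 versus SDS extracts, three biological replicates.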
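Wherever thermal stability score vs G1/S (z-score of summed log2 fold changes over temperatures) is given: synchronized HeLa Kyoto cells, proteins quantified by TMT10plex mass spectrometry, three biological replicates, mitosis taken 0.5 h after nocodazole release, G1/S directly after double thymidine block.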

For the sequence “MAFWAGGSPSVVDYFPSEDFYRCGYCKNESGSRSNGMWAHSMTVQDYQDLIDRGWRRSGKYVYKPVMNQTCCPQYTIRCRPLQFQPSKSHKKVLKKMLKFLAKGEVPKGSCEDEPMDSTMDDAVAGDFALINKLDIQCDLKTLSDDIKESLESEGKNSKKEEPQELLQSQDFVGEKLGSGEPSHSVKVHTVPKPGKGADLSKPPCRKAKEIRKERKRLKLMQQNPAGELEGFQAQGHPPSLFPPKAKSNQPKSLEDLIFESLPENASHKLEVRVVRSSPPSSQFKATLLESYQVYKRYQMVIHKNPPDTPTESQFTRFLCSSPLEAETPPNGPDCGYGSFHQQYWLDGKIIAVGVIDILPNCVSSVYLYYDPDYSFLSLGVYSALREIAFTRQLHEKTSQLSYYYMGFYIHSCPKMKYKGQYRPSDLLCPETYVWVPIEQCLPSLENSKYCRFNQDPEAVDEDRSTEPDRLQVFHKRAIMPYGVYKKQQKDPSEEAAVLQYASLVGQKCSERMLLFRN [ATE1]”, the values for the melting temperature in series [1] (cell cycle stage: G1/S) and in series [1] (cell cycle stage: mitosis) were 51 °C and 50.8 °C, respectively. The results for the thermal stability score in series [2] (setting [5]) and in series [2] (cell cycle stage: mitosis) were 0.0147 and 0.195, respectively. In series [3], the “solubility in G1/S (log2)” value was 0.211. Also, in series [4], the “solubility change mitosis (log2)” value was -0.352.

Consider “MAGAAGLTAEVSWKVLERRARTKRSGSVYEPLKSINLPRPDNETLWDKLDHYYRIVKSTLLLYQSPTTGLFPTKTCGGDQKAKIQDSLYCAAGAWALALAYRRIDDDKGRTHELEHSAIKCMRGILYCYMRQADKVQQFKQDPRPTTCLHSVFNVHTGDELLSYEEYGHLQINAVSLYLLYLVEMISSGLQIIYNTDEVSFIQNLVFCVERVYRVPDFGVWERGSKYNNGSTELHSSSVGLAKAALEAINGFNLFGNQGCSWSVIFVDLDAHNRNRQTLCSLLPRESRSHNTDAALLPCISYPAFALDDEVLFSQTLDKVVRKLKGKYGFKRFLRDGYRTSLEDPNRCYYKPAEIKLFDGIECEFPIFFLYMMIDGVFRGNPKQVQEYQDLLTPVLHHTTEGYPVVPKYYYVPADFVEYEKNNPGSQKRFPSNCGRDGKLFLWGQALYIIAKLLADELISPKDIDPVQRYVPLKDQRNVSMRFSNQGPLENDLVVHVALIAESQRLQVFLNTYGIQTQTPQQVEPIQIWPQQELVKAYLQLGINEKLGLSGRPDRPIGCLGTSKIYRILGKTVVCYPIIFDLSDFYMSQDVFLLIDDIKNALQFIKQYWKMHGRPLFLVLIREDNIRGSRFNPILDMLAALKKGIIGGVKVHVDRLQTLISGAVVEQLDFLRISDTEELPEFKSFEELEPPKHSKVKRQSSTPSAPELGQQPDVNISEWKDKPTHEILQKLNDCSCLASQAILLGILLKREGPNFITKEGTVSDHIERVYRRAGSQKLWLAVRYGAAFTQKFSSSIAPHITTFLVHGKQVTLGAFGHEEEVISNPLSPRVIQNIIYYKCNTHDEREAVIQQELVIHIGWIISNNPELFSGMLKIRIGWIIHAMEYELQIRGGDKPALDLYQLSPSEVKQLLLDILQPQQNGRCWLNRRQIDGSLNRTPTGFYDRVWQILERTPNGIIVAGKHLPQQPTLSDMTMYEMNFSLLVEDTLGNIDQPQYRQIVVELLMVVSIVLERNPELEFQDKVDLDRLVKEAFNEFQKDQSRLKEIEKQDDMTSFYNTPPLGKRGTCSYLTKAVMNLLLEGEVKPNNDDPCLIS [PHKB]”, for which the melting temperature in series [1] (cell cycle stage: G1/S) amounted to 50.2 °C; in series [1] (cell cycle stage: mitosis), 49.3 °C. The thermal stability score was -0.245 in series [2] (setting [5]) and 0.284 in series [2] (cell cycle stage: mitosis). Further, the “solubility in G1/S (log2)” value in series [3] was -0.047. Besides, the “solubility change mitosis (log2)” value in series [4] is -0.191.

For the sequence “MAGAASPCANGCGPGAPSDAEVLHLCRSLEVGTVMTLFYSKKSQRPERKTFQVKLETRQITWSRGADKIEGAIDIREIKEIRPGKTSRDFDRYQEDPAFRPDQSHCFVILYGMEFRLKTLSLQATSEDEVNMWIKGLTWLMEDTLQAPTPLQIERWLRKQFYSVDRNREDRISAKDLKNMLSQVNYRVPNMRFLRERLTDLEQRSGDITYGQFAQLYRSLMYSAQKTMDLPFLEASTLRAGERPELCRVSLPEFQQFLLDYQGELWAVDRLQVQEFMLSFLRDPLREIEEPYFFLDEFVTFLFSKENSVWNSQLDAVCPDTMNNPLSHYWISSSHNTYLTGDQFSSESSLEAYARCLRMGCRCIELDCWDGPDGMPVIYHGHTLTTKIKFSDVLHTIKEHAFVASEYPVILSIEDHCSIAQQRNMAQYFKKVLGDTLLTKPVEISADGLPSPNQLKRKILIKHKKLAEGSAYEEVPTSMMYSENDISNSIKNGILYLEDPVNHEWYPHYFVLTSSKIYYSEETSSDQGNEDEEEPKEVSSSTELHSNEKWFHGKLGAGRDGRHIAERLLTEYCIETGAPDGSFLVRESETFVGDYTLSFWRNGKVQHCRIHSRQDAGTPKFFLTDNLVFDSLYDLITHYQQVPLRCNEFEMRLSEPVPQTNAHESKEWYHASLTRAQAEHMLMRVPRDGAFLVRKRNEPNSYAISFRAEGKIKHCRVQQEGQTVMLGNSEFDSLVDLISYYEKHPLYRKMKLRYPINEEALEKIGTAEPDYGALYEGRNPGFYVEANPMPTFKCAVKALFDYKAQREDELTFIKSAIIQNVEKQEGGWWRGDYGGKKQLWFPSNYVEEMVNPVALEPEREHLDENSPLGDLLRGVLDVPACQIAIRPEGKNNRLFVFSISMASVAHWSLDVAADSQEELQDWVKKIREVAQTADARLTEGKIMERRKKIALELSELVVYCRPVPFDEEKIGTERACYRDMSSFPETKAEKYVNKAKGKKFLQYNRLQLSRIYPKGQRLDSSNYDPLPMWICGSQLVALNFQTPDKPMQMNQALFMTGRHCGYVLQPSTMRDEAFDPFDKSSLRGLEPCAISIEVLGARHLPKNGRGIVCPFVEIEVAGAEYDSTKQKTEFVVDNGLNPVWPAKPFHFQISNPEFAFLRFVVYEEDMFSDQNFLAQATFPVKGLKTGYRAVPLKNNYSEDLELASLLIKIDIFPAKENGDLSPFSGTSLRERGSDASGQLFHGRAREGSFESRYQQPFEDFRISQEHLADHFDSRERRAPRRTRVNGDNRL [PLCG1]”, the melting temperature in series [1] (cell cycle stage: G1/S) and in series [1] (cell cycle stage: mitosis) was 50.2 °C throughout. Moreover, the thermal stability score in series [2] (setting [5]) was -0.13; in series [2] (cell cycle stage: mitosis), -0.0513. Moreover, the “solubility in G1/S (log2)” value in series [3] is -0.111. The “solubility change mitosis (log2)” value in series [4] was -0.123.

In the case of “MAGAEGAAGRQSELEPVVSLVDVLEEDEELENEACAVLGGSDSEKCSYSQGSVKRQALYACSTCTPEGEEPAGICLACSYECHGSHKLFELYTKRNFRCDCGNSKFKNLECKLLPDKAKVNSGNKYNDNFFGLYCICKRPYPDPEDEIPDEMIQCVVCEDWFHGRHLGAIPPESGDFQEMVCQACMKRCSFLWAYAAQLAVTKISTEDDGLVRNIDGIGDQEVIKPENGEHQDSTLKEDVPEQGKDDVREVKVEQNSEPCAGSSSESDLQTVFKNESLNAESKSGCKLQELKAKQLIKKDTATYWPLNWRSKLCTCQDCMKMYGDLDVLFLTDEYDTVLAYENKGKIAQATDRSDPLMDTLSSMNRVQQVELICEYNDLKTELKDYLKRFADEGTVVKREDIQQFFEEFQSKKRRRVDGMQYYCS [UBR7]”, the figures for the melting temperature in series [1] (cell cycle stage: G1/S) and in series [1] (cell cycle stage: mitosis) were 49.9 °C and 50.7 °C, respectively. In addition, the values for the thermal stability score in series [2] (setting [5]) and in series [2] (cell cycle stage: mitosis) were -0.155 and 0.512, respectively. Moreover, the “solubility in G1/S (log2)” value in series [3] was found to be 0.163. For the same sequence, in series [4], the “solubility change mitosis (log2)” value was -0.0607.
